The test deals with OC183B2 (antigens associated with ovarian carcinoma) (human). Nature of the test: indirect ELISA of phage-displayed scFv. (In general: An ELISA detects its analyte on a solid surface through an enzyme-linked reagent.)

B1: anti-ovarian carcinoma scFv antibody (scFv)
scFv: EVQLQESGPEVKKPGETVRISCKASGYTFTTAGMQWVQKMPGKGLKWLGWINTNSEVPKYAEDFRGRFAFSLETSASTAYLQISNLKNEDTATFFCARSFTWGTMDYWGQGTTVTVSSGGGGSGGGGSGGGGSDVVMTQTPLSLPVSLGDQASISCRSSQTLVHSIGNTYLHWYLQKPGQSPKLLIYKVSNRFSGVPDRFSGSGSGTDFTLKISRVEAEDLGVYFCSQSTHVPYTFGGGTKLELK
Molecule B1 registered a binding activity relative to negative control of 2.5 times.

These data come from US20080138339A1.
